According to patent US20260210971A1 (Pfizer, published 2026):

How the values were obtained:
[1] = target: T1, recombinant soluble human TL1A (human, UniProt O95150 71-251); assay: cell-based or functional assay
T1 sequence: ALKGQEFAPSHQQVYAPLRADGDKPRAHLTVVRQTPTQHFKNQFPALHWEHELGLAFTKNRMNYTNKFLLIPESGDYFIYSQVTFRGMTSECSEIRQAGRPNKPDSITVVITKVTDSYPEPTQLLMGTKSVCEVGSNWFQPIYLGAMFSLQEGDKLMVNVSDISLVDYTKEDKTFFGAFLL

[2] = target: T2, endogenous TL1A of stimulated human peripheral blood (human, UniProt O95150 72-251, limits assumed); assay: cell-based or functional assay
T2 sequence (looked up): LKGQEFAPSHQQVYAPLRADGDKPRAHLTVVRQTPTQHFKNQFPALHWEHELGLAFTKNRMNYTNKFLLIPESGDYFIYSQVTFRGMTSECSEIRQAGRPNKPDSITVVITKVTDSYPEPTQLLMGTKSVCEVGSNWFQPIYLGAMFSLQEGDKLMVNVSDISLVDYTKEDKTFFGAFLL

B1: 1D1 1.31 (antibody, human IgG1, kappa, V domains shown)
VH: QVQLVQSGAEVKKPGASVKVSCKASGYDFTYYGISWVRQAPGQGLEWMGWISTYNGNTHYARMLQGRVTMTTDTSTRTAYMELRSLRSDDTAVYYCARENYYGSGAYRGGMDVWGQGTTVTVSS
VL: EIVLTQSPATLSLSPGERATLSCRASQSVSSYLAWYQQKPGQAPRLLIYDASNRATGIPARFSGSGSGTDFTLTISSLEPEDFAVYYCQQRSNWPWTFGQGTKVEIKR
notes: Full length human IgG1 with effector function-null mutations in the Fc, produced in CHO cells; Used biotinylated for staining of monocytes
For B1, the “Caspase Assay, average IC50” value [1] was 0.106 nM, the “NFkB Assay, average IC50” value [1] was 0.15 nM and the “HWB Assay, average IC50” value [2] was 0.00167 nM.
